According to US20220064286A1 (Genentech, published 2022):

Key:
[1] = molecular target: T1, human TIGIT protein (human, UniProt Q495A1 22-141, limits assumed); assay: SPR, captured mAb
T1 construct: Recombinant protein (Genentech) used in ELISA screening and as SPR analyte; also called TIGIT antigen
T1 sequence: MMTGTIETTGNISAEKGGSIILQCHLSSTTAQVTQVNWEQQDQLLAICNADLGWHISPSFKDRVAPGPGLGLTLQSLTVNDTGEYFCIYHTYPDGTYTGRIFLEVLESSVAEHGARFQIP

[2] = molecular target: T2, cynomolgus monkey (cyno) TIGIT protein (cynomolgus monkey, UniProt A0A7N9I9V4 89-209); assay: SPR, captured mAb
T2 sequence (A0A7N9I9V4 entry or part of it): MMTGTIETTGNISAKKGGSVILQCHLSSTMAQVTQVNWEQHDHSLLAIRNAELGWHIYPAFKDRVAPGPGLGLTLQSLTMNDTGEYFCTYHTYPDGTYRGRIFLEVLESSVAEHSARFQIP

[3] = molecular target: T3, hTIGIT mutant Q56A (human, UniProt Q495A1); assay: SPR (BIACORE), N=2
T3 sequence (TIGIT, looked up): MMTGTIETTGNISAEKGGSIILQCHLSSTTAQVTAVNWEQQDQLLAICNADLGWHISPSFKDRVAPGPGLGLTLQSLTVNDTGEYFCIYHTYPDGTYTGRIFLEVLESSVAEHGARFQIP

[4] = molecular target: T4, hTIGIT mutant Q53A (human, UniProt Q495A1); assay: SPR (BIACORE), N=2
T4 sequence (TIGIT, looked up): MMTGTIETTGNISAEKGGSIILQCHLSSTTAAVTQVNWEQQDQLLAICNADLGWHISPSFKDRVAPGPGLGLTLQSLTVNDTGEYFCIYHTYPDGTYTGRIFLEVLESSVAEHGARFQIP

[5] = molecular target: T5, hTIGIT mutant Y113A (human, UniProt Q495A1); assay: SPR (BIACORE), N=2
T5 sequence (TIGIT, looked up): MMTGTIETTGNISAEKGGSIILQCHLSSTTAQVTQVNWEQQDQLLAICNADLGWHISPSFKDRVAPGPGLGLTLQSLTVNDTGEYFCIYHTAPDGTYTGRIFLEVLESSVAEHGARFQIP

[6] = molecular target: T6, hTIGIT mutant E60A (human, UniProt Q495A1); assay: SPR (BIACORE), N=2
T6 sequence (TIGIT, looked up): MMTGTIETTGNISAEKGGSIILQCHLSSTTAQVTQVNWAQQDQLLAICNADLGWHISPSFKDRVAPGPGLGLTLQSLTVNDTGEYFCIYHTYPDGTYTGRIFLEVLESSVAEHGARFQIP

[7] = molecular target: T7, hTIGIT mutant L65A (human, UniProt Q495A1); assay: SPR (BIACORE), N=2
T7 sequence (TIGIT, looked up): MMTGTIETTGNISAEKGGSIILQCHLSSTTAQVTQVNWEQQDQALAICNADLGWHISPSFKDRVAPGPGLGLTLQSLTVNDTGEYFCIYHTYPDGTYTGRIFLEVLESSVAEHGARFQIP

[8] = molecular target: T8, hTIGIT mutant T117A (human, UniProt Q495A1); assay: SPR (BIACORE), N=2
T8 sequence (TIGIT, looked up): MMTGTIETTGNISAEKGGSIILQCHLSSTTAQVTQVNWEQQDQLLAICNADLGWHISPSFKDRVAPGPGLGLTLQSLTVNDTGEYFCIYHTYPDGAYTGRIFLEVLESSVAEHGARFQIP

[9] = molecular target: T9, hTIGIT mutant N70A (human, UniProt Q495A1); assay: SPR (BIACORE), N=2
T9 sequence (TIGIT, looked up): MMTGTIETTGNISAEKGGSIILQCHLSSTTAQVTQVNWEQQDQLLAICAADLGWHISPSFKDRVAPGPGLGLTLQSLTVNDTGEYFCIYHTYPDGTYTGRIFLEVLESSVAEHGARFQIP

[10] = molecular target: T10, hTIGIT mutant I68A (human, UniProt Q495A1); assay: SPR (BIACORE), N=2
T10 sequence (TIGIT, looked up): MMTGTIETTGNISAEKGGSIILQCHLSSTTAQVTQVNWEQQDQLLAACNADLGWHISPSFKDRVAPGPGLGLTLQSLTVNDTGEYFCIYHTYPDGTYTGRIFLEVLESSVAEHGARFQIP

[11] = molecular target: T1, human TIGIT protein; assay: SPR (BIACORE), N=2
[12] = molecular target: T11, hTIGIT mutant H111A (human, UniProt Q495A1); assay: SPR (BIACORE), N=2
T11 sequence (TIGIT, looked up): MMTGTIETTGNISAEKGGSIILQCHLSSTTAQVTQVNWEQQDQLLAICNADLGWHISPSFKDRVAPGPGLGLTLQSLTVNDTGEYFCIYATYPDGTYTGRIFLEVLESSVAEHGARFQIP

[13] = molecular target: T3, hTIGIT mutant Q56A; assay: SPR (BIACORE) KD normalized to WT, N=2
[14] = molecular target: T4, hTIGIT mutant Q53A; assay: SPR (BIACORE) KD normalized to WT, N=2
[15] = molecular target: T5, hTIGIT mutant Y113A; assay: SPR (BIACORE) KD normalized to WT, N=2
[16] = molecular target: T6, hTIGIT mutant E60A; assay: SPR (BIACORE) KD normalized to WT, N=2
[17] = molecular target: T7, hTIGIT mutant L65A; assay: SPR (BIACORE) KD normalized to WT, N=2
[18] = molecular target: T8, hTIGIT mutant T117A; assay: SPR (BIACORE) KD normalized to WT, N=2
[19] = molecular target: T9, hTIGIT mutant N70A; assay: SPR (BIACORE) KD normalized to WT, N=2
[20] = molecular target: T10, hTIGIT mutant I68A; assay: SPR (BIACORE) KD normalized to WT, N=2
[21] = molecular target: T1, human TIGIT protein; assay: SPR (BIACORE) KD normalized to WT, N=2
[22] = molecular target: T11, hTIGIT mutant H111A; assay: SPR (BIACORE) KD normalized to WT, N=2
[23] = molecular target: T1, human TIGIT protein; assay: SPR, against h7E7.L1H1 (implied)
Protocol: (§1) Briefly, a series S CM5 biosensor chip was activated with N-ethyl-N′-(3-dimethylaminopropyl)-carbodiimide hydrochloride (EDC) and N-hydroxysuccinimide (NHS) reagents according to the supplier's (GE Healthcare Biosciences, Piscataway, N.J.) instructions, and a human antibody capture kit was applied to couple goat anti-human Fc IgGs in order to achieve approximately 10,000 response units (RU) on each flow cell, followed by blocking un-reacted groups with 1M ethanolamine.
(§2) (flow rate: 30 μl/min) with no regeneration between injections. The sensorgrams were recorded and evaluated by BIAcore™ T200 Evaluation Software (version 2.0) after subtraction of reference cell signal. Association rates (kₒₙ) and dissociation rates (koff) were calculated using a simple one-to-one Langmuir binding model. The equilibrium dissociation constant (KD) was calculated as the ratio koff/kₒₙ.
(§3) The first humanized versions, h6B2, L1H1, h10A5.L1H1, h7E7, L1H1, and h15C8.L1H1, which contain both rat CDRs and framework residues at Vernier positions, and the fully humanized versions, h6B2.L2H5, h10A5.L4H4, h7E7.L5H9, and h15C8.L5H9, which contain only rat CDRs were subject to BIAcore affinity measurement by comparison with original rat antibodies, rat6B2, rat10A5, rat7E7 and rat 15C8. For binding affinity determinations of TIGIT antibodies against human TIGIT, cynomolgus monkey TIGIT and human alanine-scanned TIGIT mutants by single-cycle kinetics, Surface Plasmon Resonance (SRP) measurement with a BIACORE™-T200 instrument was used, as described above.

[24] = molecular target: T2, cynomolgus monkey (cyno) TIGIT protein; assay: SPR, against h7E7.L1H1 (implied)
Protocol: as §1, §2, §3

[25] = molecular target: T1, human TIGIT protein; assay: SPR, against h15C8.L1H1 (implied)
Protocol: as §1, §2, §3

[26] = molecular target: T2, cynomolgus monkey (cyno) TIGIT protein; assay: SPR, against h15C8.L1H1 (implied)
Protocol: as §1, §2, §3

B1: h6B2.L2H5 (antibody, V domains shown)
VH: EVTLKESGPALVKPTQTLTLTCTFSGFSLSTYGMGVSWIRQPPGKALEWLASIWWNGNTYYNPSLKSRLTITKDTSKNQVVLTMTNMDPVDTATYYCAHTGGAVITWFAYWGQGTLVTVSS
VL: DIQMTQSPSSLSASVGDRVTITCKASQSVGKNIAWYQQKPGKAPKLLIYYASNRYTGVPSRFSGSGSGTDFTFTISSLQPEDIATYYCQHIYNSPYPFGQGTKVEIK
notes: Fully humanized version; FR/HVR pieces in order
Kd [1]: 0.48 nM
koff [1]: 0.00222 s⁻¹
kon [1]: 4.65e+06 M⁻¹ s⁻¹
Kd [2]: 0.97 nM
koff [2]: 0.00124 s⁻¹
kon [2]: 1.28e+06 M⁻¹ s⁻¹
Kd [3]: 1.3 nM
Kd [4]: 0.9 nM
Kd [5]: 2.5 nM
Kd [6]: 2.4 nM
Kd [7]: 3 nM
Kd [8]: 1.1 nM
Kd [9]: 2.8 nM
Kd [10]: 11.5 nM
Kd [11]: 0.7 nM
Kd [12]: 1.3 nM
Binding affinity drop vs. WT [13]: 1.9 fold
Binding affinity drop vs. WT [14]: 1.3 fold
Binding affinity drop vs. WT [15]: 3.6 fold
Binding affinity drop vs. WT [16]: 3.4 fold
Binding affinity drop vs. WT [17]: 4.3 fold
Binding affinity drop vs. WT [18]: 1.6 fold
Binding affinity drop vs. WT [19]: 4 fold
Binding affinity drop vs. WT [20]: 16.4 fold
Binding affinity drop vs. WT [21]: 1 fold
Binding affinity drop vs. WT [22]: 1.9 fold

B2: h7E7.L1H2 (antibody, V domains shown)
VH: EVQLVQSGAEVKKPGASVKVSCKASGYTFTEYSIYWVRQAPGQRLEWIGRIDPKNGRTYYVDKFKNRATLTADTSASTAYMELSSLRSEDTAVYFCTRIYGFYFDFWGQGTLVTVSS
VL: DIQLTQSPSFLSASVGDRVTITCKGSQNVNKYLVWYQQKPGKAPKLLIYNTDNLQSGIPSRFSGSGSGTEYTLTISSLQPEDFATYFCYQYNNGFTFGQGTKVEIK
notes: VH: I47W against h7E7.L1H1; FR/HVR pieces
fold drop in binding affinity [23]: > 100 fold
fold drop in binding affinity [24]: > 100 fold

B3: h7E7.L1H9 (antibody, V domains shown)
VH: EVQLVQSGAEVKKPGASVKVSCKASGYTFTEYSIYWVRQAPGQRLEWMGRIDPKNGRTYYVDKFKNRVTITRDTSASTAYMELSSLRSEDTAVYYCARIYGFYFDFWGQGTLVTVSS
VL: DIQLTQSPSFLSASVGDRVTITCKGSQNVNKYLVWYQQKPGKAPKLLIYNTDNLQSGIPSRFSGSGSGTEYTLTISSLQPEDFATYFCYQYNNGFTFGQGTKVEIK
notes: VH: all seven Vernier residues back to human; FR/HVR pieces
fold drop in binding affinity [23]: > 100 fold
fold drop in binding affinity [24]: > 100 fold

B4: h15C8.L1H3 (antibody, V domains shown)
VH: EVQLVQSGAEVKKPGASVKVSCKASGYTFTEHSIYWLRQAPGQRLEWIGRIDPKNGRTYFVDKFKNRATLTTDTSASTAYMELSSLRSEDTAVYFCARIDGFYFDFWGQGTLVTVSS
VL: DIQLTQSPSFLSASVGDRVTITCKGSQNVNKYLVWYQQKPGKAPKLLIYSTDNLQSGIPSRFSGSGSGTEYTLTISSLQPEDFATYFCYQYNNGFTFGQGTKVEIK
notes: VH: I47W against h15C8.L1H1; FR/HVR pieces
fold drop in binding affinity [25]: > 100 fold
fold drop in binding affinity [26]: > 100 fold

B5: h15C8.L1H9 (antibody, V domains shown)
VH: EVQLVQSGAEVKKPGASVKVSCKASGYTFTEHSIYWVRQAPGQRLEWMGRIDPKNGRTYFVDKFKNRVTITRDTSASTAYMELSSLRSEDTAVYYCARIDGFYFDFWGQGTLVTVSS
VL: DIQLTQSPSFLSASVGDRVTITCKGSQNVNKYLVWYQQKPGKAPKLLIYSTDNLQSGIPSRFSGSGSGTEYTLTISSLQPEDFATYFCYQYNNGFTFGQGTKVEIK
notes: as for B3
fold drop in binding affinity [25]: > 100 fold
fold drop in binding affinity [26]: > 100 fold

B6: h15C8.L5H9 (antibody, V domains shown)
VH: EVQLVQSGAEVKKPGASVKVSCKASGYTFTEHSIYWVRQAPGQRLEWMGRIDPKNGRTYFVDKFKNRVTITRDTSASTAYMELSSLRSEDTAVYYCARIDGFYFDFWGQGTLVTVSS
VL: DIQLTQSPSFLSASVGDRVTITCKGSQNVNKYLVWYQQKPGKAPKLLIYSTDNLQSGVPSRFSGSGSGTEFTLTISSLQPEDFATYYCYQYNNGFTFGQGTKVEIK
notes: Fully humanized version; FR/HVR pieces
Kd [1]: > 100 nM
Kd [2]: > 100 nM
fold drop in binding affinity [25]: > 100 fold
fold drop in binding affinity [26]: > 100 fold

B7: h7E7.L5H9 (antibody, V domains shown)
VH: EVQLVQSGAEVKKPGASVKVSCKASGYTFTEYSIYWVRQAPGQRLEWMGRIDPKNGRTYYVDKFKNRVTITRDTSASTAYMELSSLRSEDTAVYYCARIYGFYFDFWGQGTLVTVSS
VL: DIQLTQSPSFLSASVGDRVTITCKGSQNVNKYLVWYQQKPGKAPKLLIYNTDNLQSGVPSRFSGSGSGTEFTLTISSLQPEDFATYYCYQYNNGFTFGQGTKVEIK
notes: as for B6
fold drop in binding affinity [23]: > 100 fold
fold drop in binding affinity [24]: > 100 fold
Kd [1]: > 100 nM
Kd [2]: > 100 nM
